US20170137511A1 (CALYPSO BIOTECH, published 2017)

T1: recombinant mouse IL-15 (R&D Systems cat. no. 447-ML) (mouse, UniProt P48346 49-162)
T1 sequence: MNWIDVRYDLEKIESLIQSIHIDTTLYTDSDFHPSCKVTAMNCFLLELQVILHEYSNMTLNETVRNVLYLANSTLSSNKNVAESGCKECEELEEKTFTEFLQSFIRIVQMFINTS

T2: recombinant rat IL-15 (Sigma cat. no. SRP4172) (rat, UniProt P97604 49-162)
T2 sequence: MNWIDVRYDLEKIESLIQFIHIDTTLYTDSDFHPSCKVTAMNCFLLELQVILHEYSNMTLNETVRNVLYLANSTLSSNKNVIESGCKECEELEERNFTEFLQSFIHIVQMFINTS


What was measured:
[1] = biological target: T3, recombinant Macaque Monkey IL-15 (MyBiosource cat. no. MBS948894) (Rhesus macaque / Cynomolgus monkey, UniProt P40221 49-162 (Chlorocebus aethiops entry)); assay: ELISA, plate-bound Macaque Monkey IL-15; printed as BC50 (half-maximal binding concentration)
T3 construct: Produced in yeast; also called Rhesus macaque IL-15; recombinant monkey IL-15; not shown: additional N-terminal His tag
T3 sequence (P40221 49-162): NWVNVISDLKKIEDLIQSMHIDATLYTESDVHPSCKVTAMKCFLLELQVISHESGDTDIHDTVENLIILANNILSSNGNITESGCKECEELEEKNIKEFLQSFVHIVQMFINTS
Procedure: (§1) Maxisorp plates were coated with recombinant human IL-15 (Prospec cat no. CYT230) or Rhesus macaque IL-15 (MyBiosource cat. no. MBS948894) at 100 ng/well in carbonate coating buffer for 2 hours at 37° C. Since published sequences of Rhesus macaque and Cynomolgus monkey IL-15 are identical, such recombinant IL-15 protein was referred to as Macaque Monkey IL-15. Tested human IL-15 recombinant protein has a sequence identical to that provided in SEQ ID NO: 1 but with an additional methionine at the N-terminal position as usually done for expressing recombinant proteins in E. Coli. Tested recombinant Macaque Monkey IL-15 was produced in yeast and has a sequence identical to that provided in SEQ ID NO: 4 but with an additional N-terminal His tag.
(§2) The plate was then blocked with 2% normal goat serum for 30 min at 37° C. and washed 6 times with PBS-Tween (0.05% Tween-20 in PBS, v/v). Test antibodies were added to the plate in triplicate at various dilutions in PBS-Tween and the plate was incubated with gentle rocking at room temperature for 2 hours. The plate was then washed 6 times with PBS-Tween and an appropriate dilution of goat anti-human IgG antibody (Millipore cat. no. AP309P) conjugated to horseradish peroxidase (HRP) was added to the plate and left rocking at room temperature for 1 hour. The plate was then washed 6 times with PBS-Tween and incubated with TMB substrate. The reaction was stopped by the addition of 1M H₂SO₄ and read at 450 nm. Dose response curves of absorbance versus concentration were plotted and analyzed to determine half-maximal binding concentrations (BC₅₀) using the Graphpad Prism software. BC₅₀ values expressed as molarity were extrapolated from concentration in ng/ml using a 150 kDa molecular weight value for all antibodies.

[2] = biological target: T4, recombinant human IL-15 (Prospec cat no. CYT230) (human, UniProt P40933 49-162); assay: ELISA, plate-bound recombinant human IL-15 (100 ng/well), HRP goat anti-human IgG, absorbance at 450 nm
T4 sequence (P40933 other isoform, or with tags, fused parts or gaps): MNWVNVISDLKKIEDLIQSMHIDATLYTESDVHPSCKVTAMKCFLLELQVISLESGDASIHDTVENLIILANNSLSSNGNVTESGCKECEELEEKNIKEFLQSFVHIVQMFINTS
Procedure: as §1
The plate was then blocked with 2% normal goat serum for 30 min at 37° C. and washed 6 times with PBS-Tween (0.05% Tween-20 in PBS, v/v). […] The reaction was stopped by the addition of 1M H₂SO₄ and read at 450 nm. Dose response curves of absorbance versus concentration were plotted and analyzed to determine half-maximal binding concentrations (BC₅₀) using the Graphpad Prism software. BC₅₀ values expressed as molarity were extrapolated from concentration in ng/ml using a 150 kDa molecular weight value for all antibodies.

[3] = biological target: T4, recombinant human IL-15 (Prospec cat …); assay: ELISA, plate-bound human IL-15; printed as BC50 (half-maximal binding concentration)
Procedure: as §1, §2

[4] = biological target: T1, recombinant mouse IL-15 (R&D Systems …); assay: ELISA, plate-bound recombinant mouse IL-15 (100 ng/well), HRP goat anti-human IgG, absorbance at 450 nm
Procedure: (§3) Maxisorp plates were coated with recombinant mouse IL-15 (R&D Systems cat. no. 447-ML) or rat IL-15 (Sigma cat. no. SRP4172) at 100 ng/well in carbonate coating buffer for 2 hours at 37° C. Tested IL-15 recombinant proteins have a sequence identical to that provided in SEQ ID NO: 2 (mouse IL-15) and SEQ ID NO: 3 (rat IL-15) but with an additional methionine at the N-terminal position as usually done for expressing recombinant proteins in E. Coli.
(§4) The plate was then blocked with 2% normal goat serum for 30 min at 37° C. and washed 6 times with PBS-Tween (0.05% Tween-20 in PBS, v/v). Test antibodies were added to the plate in triplicate at various dilutions in PBS-Tween and the plate was incubated with gentle rocking at room temperature for 2 hours. As positive controls, rabbit-anti-mouse IL-15 (Acris cat. no. AP01124PU-S) or rabbit anti-rat IL-15 (Biovision cat. no. 5172) antibodies were tested at the same concentrations. The plate was then washed 6 times with PBS-Tween and an appropriate dilution of HRP-conjugated goat anti-human IgG antibody (Millipore cat. no. AP309P) for humanized antibodies, or goat-anti-rabbit IgG antibody (Sigma cat. no. A 4416) for the positive controls was added and the plate was left rocking at room temperature for 1 hour. The plate was then washed 6 times with PBS-Tween and incubated with TMB substrate. The reaction was stopped by the addition of 1M H₂SO₄ and read at 450 nm. Dose response curves of absorbance versus concentration were plotted using the Graphpad Prism software.

[5] = biological target: T4, recombinant human IL-15 (Prospec cat …); assay: SPR (Biacore 3000), human IL-15 amine-coupled to the chip, antibody injected, 1:1 Langmuir fit
Procedure: Human IL-15 (Prospec cat no. CYT230) was immobilized onto a CMS chip (GE Healthcare) using standard amine coupling, and antibodies injected at various concentrations in 120 μl phosphate buffer saline with a flow rate of […]. Binding kinetics were analyzed on a Biacore 3000 apparatus (GE Healthcare) with a 300 seconds dissociation period. Reference signal and 0 nM antibody concentration signal were substracted and data fitted using a 1:1 (Langmuir) binding model.

[6] = biological target: T5, recombinant human IL-15 (R&D systems cat. no. 247-IL) (human, UniProt P40933 49-162); assay: cell-based or functional assay
T5 sequence (P40933 49-162 limits assumed): as the sequence (P40221 49-162) above, with H52L, T57A, D58S, I73S, I80V counted along it

[7] = biological target: recombinant human IL-2 (R&D Systems cat. no. 202-IL-010) (human, UniProt P60568 21-153); assay: ELISA, plate-bound recombinant human IL-2 (100 ng/well), HRP goat anti-human IgG, absorbance at 450 nm
Chain of recombinant human IL-2 (R&D Systems cat. no. 202-IL-010) (P60568 21-153 limits assumed): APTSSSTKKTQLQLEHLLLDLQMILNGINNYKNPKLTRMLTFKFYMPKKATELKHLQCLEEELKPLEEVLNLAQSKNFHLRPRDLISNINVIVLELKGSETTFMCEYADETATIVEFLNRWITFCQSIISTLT
Procedure: Maxisorp plates were coated with recombinant human IL-2 (R&D Systems cat. no. 202-IL-010) of SEQ ID NO: 38 at 100 ng/well in carbonate coating buffer for 2 hours at 37° C. The plate was then blocked with 2% normal goat serum for 30 min at 37° C. and washed 4 times with PBS-Tween (0.05% Tween-20 in PBS, v/v). Test antibodies or positive control biotinylated antibody (anti-IL-2 Novus Bio cat. no. NBP1-43491) were added to the plate in duplicate at 5 μg/ml in PBS-Tween and the plate was incubated with gentle rocking at room temperature for 2 hours. The plate was then washed 4 times with PBS-Tween and an appropriate dilution of goat anti-human IgG antibody (Millipore cat. no. AP309P) conjugated to horseradish peroxidase (HRP) for test antibodies, or streptavidin-HRP for positive control antibody, was added to the plate and left rocking at room temperature for 1 hour. The plate was then washed 4 times with PBS-Tween and incubated with TMB (3,3′,5,5′-tetramethylbenzidine) substrate. The reaction was stopped by the addition of 1 M H₂SO₄ and read at 450 nm.

[8] = biological target: T2, recombinant rat IL-15 (Sigma cat. no. …); assay: ELISA, plate-bound recombinant rat IL-15 (100 ng/well), HRP goat anti-human IgG, absorbance at 450 nm
Procedure: as §3, §4

[9] = biological target: T5, recombinant human IL-15 (R&D systems …); assay: cell-based or functional assay; remark: listed apart in the source
[10] = biological target: T3, recombinant Macaque Monkey IL-15 …; assay: cell-based or functional assay

| Binder | EC50 [1] [nM] | EC50 (read off the curve) [2] [µg/mL] | EC50 [3] [nM] | binding result [4] | Kd [5] [nM] | koff [5] [s⁻¹] | kon [5] [M⁻¹ s⁻¹] | IC50 in M07e cells for IL-15 trans presentation [6] [nM] | binding result [7] | binding result [8] | IC50 in Kit 225 cells (nM), Human IL-15 [9] [nM] | IC50 in M-07e cells (nM), Human IL-15 [9] [nM] | IC50 in Kit 225 cells (nM), Macaque Monkey IL-15 [10] [nM] | IC50 in M-07e cells (nM), Macaque Monkey IL-15 [10] [nM] |
| --- | --- | --- | --- | --- | --- | --- | --- | --- | --- | --- | --- | --- | --- | --- |
| huB-E29-1 (antibody, human IgG1, kappa, Humanized B-E29 variant; human IgG1 (G1m3) / kappa (Km3), produced in CHO cells; also called huVH1/huVL1; hVH1:hVK1) heavy: not shown light: DVVMTQSPLSLPVTLGQPASISCRSSQSIVDITGNTYLEWYQQRPGQSPRLLIYKVFNRFSGVPDRFSGSGSGTDFTLKISRVEAEDVGVYYCFQDSFVPYTFGQGTKLEIKRTVAAPSVFIFPPSDEQLKSGTASVVCLLNNFYPREAKVQWKVDNALQSGNSQESVTEQDSKDSTYSLSSTLTLSKADYEKHKVYACEVTHQGLSSPVTKSFNRGEC | 0.487 | ~0.2 | 1.33 |  |  |  |  |  |  |  |  |  |  |  |
| huB-E29-10 (antibody, human IgG1, kappa, V domains shown, Humanized B-E29 variant; human IgG1 (G1m3) / kappa (Km3), produced in CHO cells; also called huVH8/huVL1) VH: EVRLMASGGGLVQPGGSLRLSCAASEFTFSNYAMSWVRQAPGKGLEWVATISRGGDYTYYPDTVKGRFTISRDNSKNTLYLQMNSLRAEDTAVYYCARRVSMITGGYAMDYWGQGTLVTVSS VL: DVVMTQSPLSLPVTLGQPASISCRSSQSIVDITGNTYLEWYQQRPGQSPRLLIYKVFNRFSGVPDRFSGSGSGTDFTLKISRVEAEDVGVYYCFQDSFVPYTFGQGTKLEIKR | 0.353 |  | 0.507 | no binding (tested: log 3.7 (about 5000 ng/mL)) | 0.295 | 0.000423 | 1.43e+06 | 0.53 | no binding (tested: 5 µg/ml) | no binding (tested: log 3.7 (about 5000 ng/mL)) | 17 | 4.2 | 17.5 | 41.3 |
| huB-E29-18 (antibody, human IgG1, kappa, V domains shown, Humanized B-E29 variant; human IgG1 (G1m3) / kappa (Km3), produced in CHO cells; also called huVH1/huVL4) VH: EVRLMASGGGLVQPGGSLRLSCAASEFTFSNYAMSWVRQAPGKGLEWVATISRGGDYTYYPDSVKGRFTISRDNSKNTLYLQMNSLRAEDTAVYYCARRVSMITGGWAMDYWGQGTLVTVSS VL: DVVMTQSPLSLPVTLGQPASISCRSSQSIVDITGNTYLEWYQQRPGQSPRLLIYKVFNRFSGVPDRFSGSGSGTDFTLKISRVEAEDVGVYYCFQESFVPYTFGQGTKLEIKR | 0.367 |  | 0.693 |  |  |  |  |  |  |  |  |  |  |  |
| huB-E29-4 (antibody, human IgG1, kappa, V domains shown, Humanized B-E29 variant; human IgG1 (G1m3) / kappa (Km3), produced in CHO cells; also called huVH1/huVL2) VH: EVRLMASGGGLVQPGGSLRLSCAASEFTFSNYAMSWVRQAPGKGLEWVATISRGGDYTYYPDSVKGRFTISRDNSKNTLYLQMNSLRAEDTAVYYCARRVSMITGGWAMDYWGQGTLVTVSS VL: DVVMTQSPLSLPVTLGQPASISCRSSQSIVDITGNTYLEWFQQRPGQSPRLLIYKVFNRFSGVPDRFSGSGSGTDFTLKISRVEAEDVGVYYCFQDSFVPYTFGQGTKLEIKR | 0.5 |  | 1.01 |  |  |  |  |  | no binding (tested: 5 µg/ml) |  |  |  |  |  |
